B1: endogenous mature Omi from HEK293 cell extracts (38 kDa band) (enzyme)
chain: AVPSPPPASPRSQYNFIADVVEKTAPAVVYIEILDRHPFLGREVPISNGSGFVVAADGLIVTNAHVVADRRRVRVRLLSGDTYEAVVTAVDPVADIATLRIQTKEPLPTLPLGRSADVRQGEFVVAMGSPFALQNTITSGIVSSAQRPARDLGLPQTNVEYIQTDAAIDFGNSGGPLVNLDGEVIGVNTMKVTAGISFAIPSDRLREFLHRGEKKNSSSGISGSQRRYIGVMMLTLSPSILAELQLREPSFPDVQHGVLIHKVILGSPAHRAGLRPGDVILAIGEQMVQNAEDVYEAVRTQSQLAVQIRRGRETLTLYVTPEVTE
notes: also called HtrA2

Legend:
[1] = molecular target: T1, XIAP (human, UniProt P98170 1-497); experiment: far-western blot with ^35S-labeled in vitro translated XIAP
T1 construct: also called ^35S-labeled in vitro translated XIAP; ^35S-XIAP
T1 sequence (P98170 whole entry): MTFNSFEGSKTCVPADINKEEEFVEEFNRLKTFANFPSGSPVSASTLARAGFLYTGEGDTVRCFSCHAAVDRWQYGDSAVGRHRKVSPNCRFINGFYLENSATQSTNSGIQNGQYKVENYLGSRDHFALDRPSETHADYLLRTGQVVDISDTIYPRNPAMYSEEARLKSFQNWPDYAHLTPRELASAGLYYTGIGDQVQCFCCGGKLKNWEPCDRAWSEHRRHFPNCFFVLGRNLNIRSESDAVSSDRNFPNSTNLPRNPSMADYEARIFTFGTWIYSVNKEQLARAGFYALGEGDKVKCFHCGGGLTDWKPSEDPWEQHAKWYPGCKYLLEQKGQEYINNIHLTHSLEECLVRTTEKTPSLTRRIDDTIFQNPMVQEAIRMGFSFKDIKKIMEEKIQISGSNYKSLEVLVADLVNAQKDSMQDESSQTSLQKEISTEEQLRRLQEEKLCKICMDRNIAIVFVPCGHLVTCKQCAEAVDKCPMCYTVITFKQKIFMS
From the text: As mentioned above, the mechanism of IAP inhibition of caspases is conserved in mammals and insects. Accordingly, it is thought that other mammalian IAP-binding proteins are still undiscovered. To identify such proteins, a GST-BIR3 fusion protein was used as an affinity reagent to purify new IAP binding proteins from extracts of human HEK293 cells and mouse heart, kidney, liver and spleen tissues. […] Cells were homogenized and centrifuged once at 20,000×g and the supernatant was then subjected to centrifugation at 100,000×g. The resultant supernatant was pre-cleared with Glutathion-Sepharose beads and then incubated with GST-BIR3 bound to Glutathion-Sepharose beads for 12 hours at 4° C. The mixture was centrifuged at 500 rpm for three minutes and the GST-BIR3 bead pellet was washed three times in the lysis buffer. After binding the extracts to the GST-BIR3 protein, the bound proteins were eluted with 200 μM of the Smac IAP-binding motif peptide AVPIA (SEQ ID NO:2) at 37° C. for one hour and analyzed by far-western blotting with ³⁵S-labeled in vitro translated XIAP. Specifically, the affinity-purified proteins were subjected to SDS-PAGE electrophoresis and then transferred to a nitrocellulose membrane using standard western blotting technique. […]

[2] = molecular target: T2, Omi-S/A with the AVPS motif mutated to SSAS, from GFP-IETD-SSA (human, UniProt O43464 137-458); experiment: GST-BIR3 precipitation of transfected 293T cell extracts, Flag immunoblot
T2 construct: expressed as GFP-IETD fusion
T2 sequence: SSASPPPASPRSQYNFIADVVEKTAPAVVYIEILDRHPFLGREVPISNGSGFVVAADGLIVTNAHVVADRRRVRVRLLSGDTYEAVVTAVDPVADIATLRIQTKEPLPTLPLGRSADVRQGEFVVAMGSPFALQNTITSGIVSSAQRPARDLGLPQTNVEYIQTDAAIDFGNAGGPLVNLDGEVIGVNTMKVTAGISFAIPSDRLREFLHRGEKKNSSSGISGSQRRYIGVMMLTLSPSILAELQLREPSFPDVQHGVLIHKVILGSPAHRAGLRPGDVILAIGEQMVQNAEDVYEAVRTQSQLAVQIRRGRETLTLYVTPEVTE

[3] = molecular target: T3, Omi-deltaAVPS (C-terminal His6-tagged recombinant mature Omi with the AVPS motif deleted) (human, UniProt O43464 138-458); experiment: GST pull-down with purified recombinant proteins, Coomassie gel
T3 construct: also called Omi-ΔAVPS
T3 sequence: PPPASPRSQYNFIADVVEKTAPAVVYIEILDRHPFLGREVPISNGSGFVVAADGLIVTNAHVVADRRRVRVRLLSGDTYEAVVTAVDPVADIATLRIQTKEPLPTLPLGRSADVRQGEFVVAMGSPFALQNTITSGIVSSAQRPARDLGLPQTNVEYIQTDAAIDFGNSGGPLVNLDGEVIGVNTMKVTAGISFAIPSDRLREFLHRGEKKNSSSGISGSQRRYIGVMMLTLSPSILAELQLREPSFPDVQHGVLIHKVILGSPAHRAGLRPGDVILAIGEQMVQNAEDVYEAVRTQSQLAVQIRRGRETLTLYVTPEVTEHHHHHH
From the text: To determine whether a recombinant Omi lacking the first 133 residues (mature Omi) can interact with the GST-BIR3 fusion protein, this protein was expressed with a C-terminal His6 tag in bacteria and purified to apparent homogeneity (see FIG. 7B). […] FIGS. 7A and 7B show scanned images of Coomassie stained gels representing SDS-PAGE analysis of purified C-terminal His6-tagged recombinant wild type mature Omi (WT), Omi-ΔAVPS, Omi-S306A, and mature Smac (FIG. 7A) and recombinant Omi and Smac proteins with GST-BIR1, 2, GST-BIR3 or GST-BIR3-E314S fusion proteins (FIG. 7B). Both recombinant mature Omi and Smac were able to interact equally with the wild type GST-BIR3 protein but not with the GST-BIR3-E314S mutant ([…]). Mature Omi and Smac were also able to interact with the GST-BIR1, 2 fusion protein. […] However, deletion of the AVPS motif of mature Omi completely abolished its interaction with the GST-BIR3 fusion protein.

[4] = molecular target: T4, M-Omi-GFP (active Omi-GFP fusion protein without the MTS, initiator methionine retained) (human, UniProt O43464 134-458); experiment: GST-BIR3 precipitation of transfected cell extracts, immunoblot
T4 construct: also called Omi134-458-GFP; not shown: C-terminal GFP tag
T4 sequence: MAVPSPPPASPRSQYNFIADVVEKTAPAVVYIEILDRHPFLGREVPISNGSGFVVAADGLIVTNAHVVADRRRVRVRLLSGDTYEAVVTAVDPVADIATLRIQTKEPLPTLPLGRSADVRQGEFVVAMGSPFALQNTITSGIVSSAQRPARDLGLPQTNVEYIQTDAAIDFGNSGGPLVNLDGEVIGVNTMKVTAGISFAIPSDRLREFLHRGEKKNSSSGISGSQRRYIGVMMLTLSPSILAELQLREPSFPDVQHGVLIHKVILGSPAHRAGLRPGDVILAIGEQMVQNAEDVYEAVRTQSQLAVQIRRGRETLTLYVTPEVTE

[5] = molecular target: T5, M-Omi-S/A-GFP (inactive S306A Omi-GFP fusion protein without the MTS, initiator methionine retained) (human, UniProt O43464 134-458); experiment: as above
T5 construct: not shown: C-terminal GFP tag
T5 sequence: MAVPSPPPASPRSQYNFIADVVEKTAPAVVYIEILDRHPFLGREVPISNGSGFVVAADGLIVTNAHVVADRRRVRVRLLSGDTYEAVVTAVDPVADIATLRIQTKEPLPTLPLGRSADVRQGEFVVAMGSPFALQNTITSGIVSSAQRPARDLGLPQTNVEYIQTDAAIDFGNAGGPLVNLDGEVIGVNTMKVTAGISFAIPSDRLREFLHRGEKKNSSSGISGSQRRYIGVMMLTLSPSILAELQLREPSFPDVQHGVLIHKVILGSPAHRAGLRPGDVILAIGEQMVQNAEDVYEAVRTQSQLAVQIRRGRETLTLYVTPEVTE

[6] = molecular target: B1; experiment: immunodepletion of 293 extracts with Smac monoclonal antibody, then GST-BIR3 pull-down
Protocol: The undepleted and depleted extracts were incubated with the GST-BIR3 protein and the bound proteins were eluted as above. The eluates were then analyzed by far-western blotting with ³⁵S-XIAP and by western blotting with the Smac antibody as described above (see FIG. 4, left and right panels, respectively). […] The asterisk in FIG. 4 indicates non-specific bands and the arrow indicates the IgG band.

[7] = molecular target: T1, XIAP; experiment: co-immunoprecipitation with Flag antibody from 293T cells, XIAP immunoblot

Binder: B1
- binding result [1]: binds

B2: GST-BIR3 fusion protein (BIR3 domain of human XIAP fused to GST) (other, UniProt P98170 238-358, looked up)
chain: RSESDAVSSDRNFPNSTNLPRNPSMADYEARIFTFGTWIYSVNKEQLARAGFYALGEGDKVKCFHCGGGLTDWKPSEDPWEQHAKWYPGCKYLLEQKGQEYINNIHLTHSLEECLVRTTEK
notes: domain: BIR3; also called wild type GST-BIR3; XIAP-BIR3; not shown: glutathione-S-transferase (GST) fusion partner
- binding result [2]: no binding
- binding result [3]: no binding
- binding result [4]: no binding
- binding result [5]: no binding

B3: endogenous mature Smac/Diablo from HEK293 cell extracts (23 kDa band) (other, human, UniProt Q9NR28 56-239, looked up)
chain: AVPIAQKSEPHSLSSEALMRRAVSLVTDSTSTFLSQTTYALIEAITEYTKAVYTLTSLYRQYTSLLGKMNSEEEDEVWQVIIGARAEMTSKHQEYLKLETTWMTAVGLSEMAAEAAYQTGADQASITARNHIQLVKLQVEEVHQLSRKAETKLAEAQIEELRQKTQEEGEERAESEQEAYLRED
notes: mature
- binding result [6]: no binding

B4: mature Omi with the AVPS motif mutated to AAAS, processed in 293T cells from a C-terminal Flag-tagged mutant precursor (enzyme)
chain: AAASPPPASPRSQYNFIADVVEKTAPAVVYIEILDRHPFLGREVPISNGSGFVVAADGLIVTNAHVVADRRRVRVRLLSGDTYEAVVTAVDPVADIATLRIQTKEPLPTLPLGRSADVRQGEFVVAMGSPFALQNTITSGIVSSAQRPARDLGLPQTNVEYIQTDAAIDFGNSGGPLVNLDGEVIGVNTMKVTAGISFAIPSDRLREFLHRGEKKNSSSGISGSQRRYIGVMMLTLSPSILAELQLREPSFPDVQHGVLIHKVILGSPAHRAGLRPGDVILAIGEQMVQNAEDVYEAVRTQSQLAVQIRRGRETLTLYVTPEVTE
notes: also called AAAS mutant; not shown: C-terminal Flag tag
- binding result [7]: no binding
